First the molecules themselves.
B1: A4-038 (VHH)
VHH: VQLQESGGGLVQPGGSLRLSCAASGSHFSINTMGWYRQAPGKQRELVATVTRGGSTNYANSVKGRFTISRDNAKNTVYLQMNSLRPEDTAVYYCHLDEVRQSSWTTSNLWGQGTQVTVSS
B2: A4-046 (VHH)
VHH: B1 VHH with H27R, N60D, L96V
B3: A4-044 (VHH)
VHH: B1 VHH with H27S, S55V, N60D, L96V
B4: A4-039 (VHH)
VHH: B1 VHH with H27G, Q43W, N60G, L96I
B5: A4-048 (VHH)
VHH: B1 VHH with H27M, S55N, N60G, L96V
B6: A4-105 (VHH)
VHH: VQLQESGGGLVQPGGSLRLSCAASGSIFSLNAMGWYRQAPGKQRELVATITSGGSTNYADSVKGRFTISRDNAKNTAYLQMNNLQPEDTAVYYCHVDEVRESIWTTSNLWGQGTQVTVSS
B7: A4-111 (VHH)
VHH: VQLQESGGGLAQPGGSLRLSCAASGSNFSINTMGWYRQRAGKQREFVATITRGGSTNYGDSVKGRFTISRDNAKTTVYLQMNSLRPEDTAVYYCHLDEVRESTWTTSNLWGQGTQVTVSS
B8: A4-H5 (VHH)
VHH: VQLQASGGGFVQPGGSLRLSCAASGRGFSINTMGWFRQAPGKERELVAVVTRGGTTYYADSVKGRFTISRDNSKNTVYLQMNSLRAEDTAVYYCHVDEVRQSSWTTSNLWGQGTQVTVSS
B9: A4-H3 (VHH)
VHH: B8 VHH with R26S, G27I, T32L, V50I, R52P, T55N, V91T
B10: A4-H2 (VHH)
VHH: B8 VHH with G27S, L46F, T55S, V91T, V96I, L109I
B11: A4-M1 (A4-017 with an N-terminal amino acid sequence MetAlaGln) (VHH)
VHH: QVQLQESGGGLVQPGGSLRLSCAASGSIFSINLMGWYRQAPGKQRELVATITRGGNTNYAGSVKGRFTISRDNAKNTVYLQMNSLRPEDTAVYYCHVDEVRQSSWTTSNLWGQGTQVTVSS
B12: A4-M2 (A4-017 with an N-terminal methionine) (VHH)
VHH: B11 VHH
B13: A4-L1 (A4-017 with a C-terminal IgA hinge followed by a 6xHis tag) (VHH)
VHH: B1 VHH with H27I, T32L, V50I, S55N, N60G, L96V
B14: A4-T2 (A4-017 with a C-terminal GGGGS linker followed by a 6xHis tag) (VHH)
VHH: B1 VHH with H27I, T32L, V50I, S55N, N60G, L96V
B15: A4-T1 (A4-017 with a C-terminal 6xHis tag) (VHH)
VHH: B1 VHH with H27I, T32L, V50I, S55N, N60G, L96V

Residue numbers refer to the chain shown, from its start.

One test addresses T1, AAV8.
T1 construct: also called adeno-associated virus serotype 8
Briefly: SPR, AAV on CM5 chip. In general terms: Surface plasmon resonance follows binding to a sensor surface in real time, without labels.
Procedure: (§1) AAV was amine-coupled to a CM5 sensor chip at a density of 500-800 response units (RU). Nanobodies were injected at seven concentrations (1-100 nM) with a flow rate of 45 μL/min, and chip regeneration was performed using glycine-HCl (pH 1.5). Binding curves at different nanobody concentrations were used to calculate kinetic parameters (Kₐ, Kd, KD) (Table 2 and FIG. 2).
The Kd is the equilibrium constant for the complex coming apart. A low value points to a tighter complex. In general, koff refers to the first-order rate constant of dissociation. A higher koff goes with fast dissociation. Usually kon stands for the second-order rate constant of association. B1 came in with a Kd of 69.5 nM, a koff of 0.0005 s⁻¹ and a kon of 7190 M⁻¹ s⁻¹.

Turning to B2, the dissociation constant (Kd) came out at 37.6 nM, the koff was 0.00455 s⁻¹ and the kon was 121000 M⁻¹ s⁻¹.

Consider B3, for which the Kd worked out at 1.52 nM, the koff came to 0.00024 s⁻¹ and the kon came to 158000 M⁻¹ s⁻¹.

As for B4, the Kd was 281 nM, the koff worked out at 0.00177 s⁻¹ and the kon came to 6290 M⁻¹ s⁻¹.

Turning to B5, binding was put at a Kd of 146 nM, the off-rate (koff) is 0.00031 s⁻¹ and the kon is 2130 M⁻¹ s⁻¹.

A further test addresses T2, AAV2 (UniProt P03135 1-735).
T2 construct: also called adeno-associated virus serotype 2
Nature of the test: SPR, AAV on CM5 chip.
Procedure: as §1
As to B1, binding was put at a Kd of 0.704 nM, the koff amounted to 0.00014 s⁻¹ and the association rate constant (kon) worked out at 199000 M⁻¹ s⁻¹.

As to B2, binding was put at a Kd of 48.8 nM, the koff was found to be 0.00725 s⁻¹ and the kon is 148000 M⁻¹ s⁻¹.

B3 had a dissociation constant Kd of 13.1 nM, a dissociation rate constant (koff) of 0.00069 s⁻¹ and a kon of 52900 M⁻¹ s⁻¹.

In turn, B4 registered a Kd of 39.5 nM, an off-rate (koff) of 0.00015 s⁻¹ and a kon of 3800 M⁻¹ s⁻¹.

In turn, B5 came in with a Kd of 155 nM, an off-rate (koff) of 0.00137 s⁻¹ and a kon of 8850 M⁻¹ s⁻¹.

A further test concerns the target T3, AAV9.
T3 construct: also called adeno-associated virus serotype 9
Briefly: SPR, AAV on CM5 chip.
Procedure: as §1
As to B1, the Kd is 7.29 nM, the koff turned out to be 0.0011 s⁻¹ and the kon is 151000 M⁻¹ s⁻¹.

B2: binding was characterised by a dissociation constant (Kd) of 16.1 nM, the koff was 0.00269 s⁻¹ and the kon stood at 167000 M⁻¹ s⁻¹.

With B3, the affinity, expressed as Kd, was 13.1 nM; the koff was found to be 0.00188 s⁻¹; the kon was found to be 143000 M⁻¹ s⁻¹.

Molecule B4 yielded a Kd of 360 nM, a koff of 0.001 s⁻¹ and a kon of 2780 M⁻¹ s⁻¹.

B5 gave a Kd of 399 nM, a koff of 0.0013 s⁻¹ and a kon of 3260 M⁻¹ s⁻¹.

Another test deals with T4, AAV5.
T4 construct: also called adeno-associated virus serotype 5
Briefly: SPR, AAV on CM5 chip.
Procedure: as §1
In turn, B1 returned a Kd of 1.57 nM, a koff of 0.00028 s⁻¹ and an on-rate constant (kon) of 178000 M⁻¹ s⁻¹.

For B2, the Kd amounted to 55.3 nM, the koff was found to be 0.00933 s⁻¹ and the kon amounted to 169000 M⁻¹ s⁻¹.

Turning to B3, binding was put at a Kd of 7.47 nM, the koff stood at 0.00137 s⁻¹ and the kon worked out at 183000 M⁻¹ s⁻¹.

In the case of B4, binding was put at a Kd of 246 nM, the koff was 0.00182 s⁻¹ and the kon turned out to be 7410 M⁻¹ s⁻¹.

Molecule B5 yielded a Kd of 54.4 nM, a koff of 0.00051 s⁻¹ and a kon of 9380 M⁻¹ s⁻¹.

In the next test the target is T5, AAV8 (adeno-associated virus serotype 8).
T5 construct: also called adeno-associated virus serotype 8
Nature of the test: SPR, AAV on CM5 chip.
Procedure: as §1
Regarding B6, the Kd came out at 21.7 nM, the koff is 0.00391 s⁻¹ and the kon turned out to be 180000 M⁻¹ s⁻¹.

For the molecule B7, the Kd is 1.88 nM, the koff turned out to be 0.00014 s⁻¹ and the kon is 74500 M⁻¹ s⁻¹.

For another test, the target named is T6, AAV2 (adeno-associated virus serotype 2, UniProt P03135 1-735).
T6 construct: also called adeno-associated virus serotype 2
Nature of the test: SPR, AAV on CM5 chip.
Procedure: as §1
Consider B6, for which the Kd was determined as 34.2 nM, the koff amounted to 0.00543 s⁻¹ and the kon turned out to be 159000 M⁻¹ s⁻¹.

Regarding B7, the affinity, expressed as Kd, was 3.51 nM; the koff amounted to 0.0002 s⁻¹; the kon came to 56900 M⁻¹ s⁻¹.

In the next test the target is T7, AAV9 (adeno-associated virus serotype 9).
T7 construct: also called adeno-associated virus serotype 9
Nature of the test: SPR, AAV on CM5 chip.
Procedure: as §1
Molecule B6 registered a Kd of 17 nM, a koff of 0.00189 s⁻¹ and a kon of 111000 M⁻¹ s⁻¹.

B7 registered a dissociation constant Kd of 2 nM, a koff of 0.00025 s⁻¹ and a kon of 125000 M⁻¹ s⁻¹.

For a further test, the target named is T8, AAV5 (adeno-associated virus serotype 5).
T8 construct: also called adeno-associated virus serotype 5
Nature of the test: SPR, AAV on CM5 chip.
Procedure: as §1
The molecule B6 came in with a Kd of 14 nM, a koff of 0.00139 s⁻¹ and an on-rate (kon) of 99600 M⁻¹ s⁻¹.

Take B7: the Kd came out at 1.06 nM, the koff turned out to be 9e-05 s⁻¹ and the kon came to 85300 M⁻¹ s⁻¹.

Another test deals with T5, AAV8. Nature of the test: SPR, AAV on CM5 chip. The source holds these as a separate data set.
Take B8: binding was put at a Kd of 302 nM, the koff is 0.0013 s⁻¹ and the on-rate constant (kon) is 4300 M⁻¹ s⁻¹.

In turn, B9 displayed a Kd of 9.59 nM, a koff of 0.00128 s⁻¹ and a kon of 134000 M⁻¹ s⁻¹.

Molecule B10 came in with a Kd of 1.98 nM, a koff of 0.00028 s⁻¹ and a kon of 141000 M⁻¹ s⁻¹.

For another test, the target named is T7, AAV9. Nature of the test: SPR, AAV on CM5 chip. This is another data set of the same source.
As for B8, the Kd was 1900 nM, the dissociation rate constant (koff) was 0.0058 s⁻¹ and the kon is 3050 M⁻¹ s⁻¹.

On to B9, for which binding was characterised by a dissociation constant (Kd) of 4.32 nM, the koff amounted to 0.00073 s⁻¹ and the association rate constant (kon) came to 169000 M⁻¹ s⁻¹.

In the case of B10, the equilibrium dissociation constant (Kd) was found to be 400 nM, the koff was found to be 0.00188 s⁻¹ and the association rate constant (kon) is 4700 M⁻¹ s⁻¹.

The target of the next test is T8, AAV5. Nature of the test: SPR, AAV on CM5 chip. This is another data set of the same source.
The molecule B8 returned a Kd of 823 nM, a koff of 0.00152 s⁻¹ and a kon of 1850 M⁻¹ s⁻¹.

For the molecule B9, the Kd was 3.05 nM, the koff was 0.00048 s⁻¹ and the kon is 157000 M⁻¹ s⁻¹.

For the molecule B10, the Kd was determined as 8.51 nM, the koff was found to be 0.00139 s⁻¹ and the kon came out at 163000 M⁻¹ s⁻¹.

The target in another test is Adeno-associated virus serotype 8 (AAV8) (AAV8). Briefly: SPR, AAV amine-coupled to CM5 chip, nanobody 1-50 nM as analyte.
In turn, B11 returned a Kd of 196 nM, a koff of 0.0014 s⁻¹ and a kon of 7150 M⁻¹ s⁻¹.

B12 gave a Kd of 171 nM, a koff of 0.001 s⁻¹ and a kon of 5830 M⁻¹ s⁻¹.

Regarding B13, the Kd came out at 220 nM, the koff amounted to 0.00093 s⁻¹ and the kon is 4230 M⁻¹ s⁻¹.

Molecule B14 registered a Kd of 102 nM, a koff of 0.00078 s⁻¹ and a kon of 7650 M⁻¹ s⁻¹.

Regarding B15, the Kd stood at 202 nM, the koff was 0.00148 s⁻¹ and the kon is 7310 M⁻¹ s⁻¹.

The next test deals with Adeno-associated virus serotype 9 (AAV9) (AAV9). The test is described as above.
The molecule B11 returned a Kd of 0.821 nM, a koff of 0.00015 s⁻¹ and an on-rate constant (kon) of 183000 M⁻¹ s⁻¹.

Molecule B12 had a Kd of 0.874 nM, a koff of 0.00013 s⁻¹ and a kon of 149000 M⁻¹ s⁻¹.

With B13, the Kd was 0.802 nM, the koff turned out to be 0.00011 s⁻¹ and the kon stood at 137000 M⁻¹ s⁻¹.

B14 returned a Kd of 0.513 nM, a koff of 0.0001 s⁻¹ and an on-rate (kon) of 195000 M⁻¹ s⁻¹.

With B15, the equilibrium dissociation constant (Kd) is 0.713 nM, the koff was determined as 0.00012 s⁻¹ and the association rate constant (kon) worked out at 168000 M⁻¹ s⁻¹.

The target in another test is Adeno-associated virus serotype 5 (AAV5) (AAV5). The test is described as above.
B11 returned a Kd of 324 nM, a koff of 0.00189 s⁻¹ and an association rate constant (kon) of 5830 M⁻¹ s⁻¹.

B12 returned a dissociation constant Kd of 415 nM, a koff of 0.002 s⁻¹ and an on-rate (kon) of 4820 M⁻¹ s⁻¹.

Regarding B13, the affinity, expressed as Kd, was 569 nM; the koff was found to be 0.00092 s⁻¹; the association rate constant (kon) was determined as 1620 M⁻¹ s⁻¹.

B14 displayed a Kd of 234 nM, a dissociation rate constant (koff) of 0.00147 s⁻¹ and a kon of 6280 M⁻¹ s⁻¹.

B15 showed a Kd of 268 nM, a koff of 0.00193 s⁻¹ and a kon of 7200 M⁻¹ s⁻¹.

For the origin of these results see patent US20260193326A1 (published 2026).
